Measurements reported in US11161908 (CITY OF HOPE, dated 2021).
Positions count from the first letter of the chain named.

B1: humanized C90 variant HC1 + LC3 (antibody, V domains shown)
VH: QVQLQESGPGLVKPSQTLSLTCTVSGDSITSGYWNWIRQHPGKGLEYIGYISYSGSTYYNPSLKSRVTISRDTSKNQFSLKLSSVTAADTAVYYCASPNYPFYAMDYWGQGTLVTVSS
VL: DIVMTQSPSSLSASVGDRVTITCRASESVDNYGISFMNWFQQKPGKAPKLLIYAASNLGSGVPSRFSGSGSGTDFTLTISSLQPEDFATYYCQQSKEVPWTFGQGTKVEIKR
notes: also called Humanized HC1 + LC3; Hu90 HC-1 with Hu90 LC-3
B2: humanized C90 variant HC2 + LC1 (antibody, V domains shown)
VH: B1 VH with Q1E, F78Y
VL: EIVLTQSPATLSLSPGERATLSCRASESVDNYGISFLNWFQQKPGQAPRLLIYAASNRATGIPARFSGSGSGTDFTLTISSLEPEDFAVYYCQQSKEVPWTFGGGTKVEIKR
notes: also called Humanized HC2 + LC1; Hu90 HC-2 with Hu90 LC-1
B3: humanized C90 variant HC3 + LC1 (antibody, V domains shown)
VH: B1 VH with Q1E, Q16E, T23S, H40P, F78Y, K81R, V92L, L113R
VL: B2 VL
notes: also called Humanized HC3 + LC1; Hu90 HC-3 with Hu90 LC-1
B4: humanized C90 variant HC3 + LC3 (antibody, V domains shown)
VH: B1 VH with Q1E, Q16E, T23S, H40P, F78Y, K81R, V92L, L113R
VL: B1 VL
notes: also called Humanized HC3 + LC3; Hu90 HC-3 with Hu90 LC-3
B5: humanized C90 variant HC1 + LC2 (antibody, V domains shown)
VH: B1 VH
VL: B2 VL with E1D, L37M
notes: also called Humanized HC1 + LC2; Hu90 HC-1 with Hu90 LC-2
B6: humanized C90 variant HC3 + LC2 (antibody, V domains shown)
VH: B1 VH with Q1E, Q16E, T23S, H40P, F78Y, K81R, V92L, L113R
VL: B2 VL with E1D, L37M
notes: also called Humanized HC3 + LC2; Hu90 HC-3 with Hu90 LC-2
B7: humanized C90 variant HC2 + LC2 (antibody, V domains shown)
VH: B1 VH with Q1E, F78Y
VL: B2 VL with E1D, L37M
notes: also called Hu90 HC-2 with Hu90 LC-2
B8: humanized C90 variant HC1 + LC1 (antibody, V domains shown)
VH: B1 VH
VL: B2 VL
notes: also called Humanized HC1 + LC1; Hu90 HC-1 with Hu90 LC-1
B9: chimeric anti-human BAFF-R antibody C90 (Clone 90 variable regions, human IgG1 constant regions) (antibody, V domains shown)
VH: EVQLQESGPSLVKPSQTLSLTCSVTGDSITSGYWNWIRKFPGNKLEYMGYISYSGSTYYNPSLKSRISITRDTSKNQYYLQLNSVTPEDTATYYCASPNYPFYAMDYWGQGTSVTVSS
VL: not shown
notes: also called chimeric C90; Chi90
B10: chimeric anti-human BAFF-R antibody C55 (Clone 55 variable regions, human IgG1 constant regions) (antibody, V domains shown)
VH: QVTLKESGPGILKPSQTLSLTCSFSGFSLSTSGMGVGWIRQPSGKGLEWLAHIWWDDDKYYNSSLKSHLTISKDTSRNQVFLKITSVDTADTATYYCARSFGYGLDYWGQGTTLTVSS
VL: DIQMTQTTSSLSASLGDRVTISCSASQDISNYLNWYQQKPDGTVKLLIYYTSSLHSGVPSRFSGSGSGTDYSLTISSLEPEDIATYYCHQFSELPWTFGGGTKLEIK
modifications: Conjugated to Alexa Fluor 488 in FIG. 1D (sites not given)
notes: also called chimeric C55; Chi55
B11: mouse monoclonal antibody from hybridoma Clone 55 (antibody, V domains shown)
VH: B10 VH
VL: B10 VL
notes: also called mouse mAb C55

What was measured:
[1] = target: T1, commercial, recombinant extracellular domain of human BAFF-R (human, UniProt Q96RJ3 1-78); experiment: Biacore analysis; antibody as loading sample, recombinant human BAFF-R ECD as sample
T1 construct: extracellular domain
Procedure: The chimeric anti-BAFF-R antibody C90 was humanized with several variants. The humanization process took into consideration and analysis of the variable region and specifically the CDRs of the chimeric antibody. From there, three variants for each heavy and light chain was developed with varying degrees of human-likeness ranging from 1 the most human to 3 the most conservative to the chimeric. The variants were combined to produce 9 variants. Biacore analysis was performed on each variant as well as the chimeric parental C90 to determine their equilibrium dissociation constant K_D. The antigen was commercial, recombinant extracellular domain of human BAFF-R.

[2] = target: T2, human BAFF-R, endogenous, on human B-cell lines, primary lymphoma cells and normal B cells (human, UniProt Q96RJ3 1-184); experiment: flow cytometry, Alexa Fluor 488-conjugated chimeric antibody on primary NHL patient samples
T2 construct: whole, on cells; also called BAFF-R-positive human MCL lines (Mino, JeKo-1, REC-1, JVM-13, Z-138); NHL lines JeKo-1, SU-DHL-6, Raji, RL

[3] = target: T2, human BAFF-R, endogenous, on human …; experiment: flow cytometry, hybridoma supernatant at 1/10, 1/50 and 1/200 with anti-mouse IgG-APC on Mino; 293T as negative control
Text: Figure 8: FIG. 8 are flow cytometry results showing verification that selected hybridoma clones bind MCL cells. Binding of hybridoma Clone 53, 55, 67, and 90 supernatants (1/10, 1/50, and 1/200 dilutions) to Mino (mantle cell lymphoma) and 293T (negative control) cell lines assessed by flow cytometry performed with anti-mouse IgG-APC.

Binder | Kd [1] [nM] | koff [1] [s⁻¹] | kon [1] [M⁻¹ s⁻¹] | binding result [2] | binding result [3]
B1 | 5 | 0.0021 | 410000 | – | –
B2 | 2.6 | 0.002 | 770000 | – | –
B3 | 3.8 | 0.0031 | 820000 | – | –
B4 | 3.4 | 0.0023 | 680000 | – | –
B5 | 3.7 | 0.0023 | 620000 | – | –
B6 | 3.1 | 0.0037 | 1.2e+06 | – | –
B7 | 3.6 | 0.0022 | 610000 | – | –
B8 | 4 | 0.0024 | 610000 | – | –
B9 | – | 0.002 | 990000 | – | –
B10 | – | – | – | binds | –
B11 | – | – | – | – | binds
